# B1: Hairpin Ribozyme (parent)
# chain: GUCCUCUUUCACGUGCGCGUGAAAGAGAGAAGUGAACCAGAGAAACACACGUUGUGGUAUAUUACCUGGUA
# Variants of: B1
# Assay: self-cleavage, relative activity (ratio to wild type); higher = more cleavage; co-transcriptional
row,Variant,self-cleavage
1,GUCCUCUUUCACGUGCGCGUGAAAGCGAGAAGGGAACCAGAGAAACACACGUUGUGGUAUAUUACCUGGUA [A26C U33G],0.0995
2,GUCCUCUUUCACGUGCGCGUGAAAGCGAGAAGUGAACCAGAGAAACACACGAUGUGGUAUAUUACCUGGUA [A26C U52A],0.599
3,GUCCUCUUUCACGUGCGCGUGAAAGCGAGAAGUGAACCAGAGAAACACACGGUGUGGUAUAUUACCUGGUA [A26C U52G],0.409
4,GUCCUCUUUCACGUGCGCGUGAAAGCGAGAAGUGAACCAGAGAAACACACGUAGUGGUAUAUUACCUGGUA [A26C U53A],0.521
5,GUCCUCUUUCACGUGCGCGUGAAAGCGAGAAGUGAACCAGAGAAACACACGUUGGGGUAUAUUACCUGGUA [A26C U55G],0.297
6,GUCCUCUUUCACGUGCGCGUGAAAGCGAGAAGUGAACCAGAGAAACACACGUUGUGGAAUAUUACCUGGUA [A26C U58A],0.623
7,GUCCUCUUUCACGUGCGCGUGAAAGCGAGAAGUGAACCAGAGAAACACACGUUGUGGCAUAUUACCUGGUA [A26C U58C],0.771
8,GUCCUCUUUCACGUGCGCGUGAAAGCGAGAAGUGAACCAGAGAAACACACGUUGUGGGAUAUUACCUGGUA [A26C U58G],0.496
9,GUCCUCUUUCACGUGCGCGUGAAAGCGAGAAGUGAACCAGAGAAACACACGUUGUGGUACAUUACCUGGUA [A26C U60C],0.602
10,GUCCUCUUUCACGUGCGCGUGAAAGCGAGAAGUGAACCAGAGAAACACACGUUGUGGUAGAUUACCUGGUA [A26C U60G],0.365
11,GUCCUCUUUCACGUGCGCGUGAAAGCGAGAAGUGAACCAGAGAAACACACGUUGUGGUAUAAUACCUGGUA [A26C U62A],0.269
12,GUCCUCUUUCACGUGCGCGUGAAAGCGAGAAGUGAACCAGAGAAACACACGUUGUGGUAUACUACCUGGUA [A26C U62C],0.213
13,GUCCUCUUUCACGUGCGCGUGAAAGCGAGAAGUGAACCAGAGAAACACACGUUGUGGUAUAUCACCUGGUA [A26C U63C],0.177
14,GUCCUCUUUCACGUGCGCGUGAAAGCGAGAAGUGAACCAGAGAAACACACGUUGUGGUAUAUUACCAGGUA [A26C U67A],0.0843
15,GUCCUCUUUCACGUGCGCGUGAAAGCGAGAAGUGAACCAGAGAAACACACGUUGUGGUAUAUUACCCGGUA [A26C U67C],0.21
16,GUCCUCUUUCACGUGCGCGUGAAAGCGAGAAGUGAACCAGAGAAACACACGUUGUGGUAUAUUACCUGGCA [A26C U70C],0.728
17,GUCCUCUUUCACGUGCGCGUGAAAGGGGGAAGUGAACCAGAGAAACACACGUUGUGGUAUAUUACCUGGUA [A26G A28G],1.12
18,GUCCUCUUUCACGUGCGCGUGAAAGGGAGUAGUGAACCAGAGAAACACACGUUGUGGUAUAUUACCUGGUA [A26G A30U],0.108
19,GUCCUCUUUCACGUGCGCGUGAAAGGGAGACGUGAACCAGAGAAACACACGUUGUGGUAUAUUACCUGGUA [A26G A31C],0.114
20,GUCCUCUUUCACGUGCGCGUGAAAGGGAGAUGUGAACCAGAGAAACACACGUUGUGGUAUAUUACCUGGUA [A26G A31U],0.183
21,GUCCUCUUUCACGUGCGCGUGAAAGGGAGAAGUGAACCCGAGAAACACACGUUGUGGUAUAUUACCUGGUA [A26G A39C],0.571
22,GUCCUCUUUCACGUGCGCGUGAAAGGGAGAAGUGAACCAGCGAAACACACGUUGUGGUAUAUUACCUGGUA [A26G A41C],1.25
23,GUCCUCUUUCACGUGCGCGUGAAAGGGAGAAGUGAACCAGAGACACACACGUUGUGGUAUAUUACCUGGUA [A26G A44C],0.0629
24,GUCCUCUUUCACGUGCGCGUGAAAGGGAGAAGUGAACCAGAGAGACACACGUUGUGGUAUAUUACCUGGUA [A26G A44G],0.241
25,GUCCUCUUUCACGUGCGCGUGAAAGGGAGAAGUGAACCAGAGAAGCACACGUUGUGGUAUAUUACCUGGUA [A26G A45G],0.132
26,GUCCUCUUUCACGUGCGCGUGAAAGGGAGAAGUGAACCAGAGAAACACGCGUUGUGGUAUAUUACCUGGUA [A26G A49G],0.665

row,Variant,self-cleavage
1,GUCCUCUUUCACGUGCGCGUGAAAGGGAGAAGUGAACCAGAGAAACACACGUUGUGGUCUAUUACCUGGUA [A26G A59C],0.162
2,GUCCUCUUUCACGUGCGCGUGAAAGGGAGAAGUGAACCAGAGAAACACACGUUGUGGUGUAUUACCUGGUA [A26G A59G],0.158
3,GUCCUCUUUCACGUGCGCGUGAAAGGGAGAAGUGAACCAGAGAAACACACGUUGUGGUAUGUUACCUGGUA [A26G A61G],0.161
4,GUCCUCUUUCACGUGCGCGUGAAAGGGAGAAGUGAACCAGAGAAACACACGUUGUGGUAUAUUCCCUGGUA [A26G A64C],0.303
5,GUCCUCUUUCACGUGCGCGUGAAAGGGAGAAGUGAACCAGAGAAACACACGUUGUGGUAUAUUGCCUGGUA [A26G A64G],0.55
6,GUCCUCUUUCACGUGCGCGUGAAAGGGAGAAGUGAACCAGAGAAACACACGUUGUGGUAUAUUUCCUGGUA [A26G A64U],0.271
7,GUCCUCUUUCACGUGCGCGUGAAAGGGAGAAGUGAACGAGAGAAACACACGUUGUGGUAUAUUACCUGGUA [A26G C38G],0.138
8,GUCCUCUUUCACGUGCGCGUGAAAGGGAGAAGUGAACUAGAGAAACACACGUUGUGGUAUAUUACCUGGUA [A26G C38U],0.297
9,GUCCUCUUUCACGUGCGCGUGAAAGGGAGAAGUGAACCAGAGAAAAACACGUUGUGGUAUAUUACCUGGUA [A26G C46A],0.0799
10,GUCCUCUUUCACGUGCGCGUGAAAGGGAGAAGUGAACCAGAGAAAUACACGUUGUGGUAUAUUACCUGGUA [A26G C46U],0.267
11,GUCCUCUUUCACGUGCGCGUGAAAGGGAGAAGUGAACCAGAGAAACAAACGUUGUGGUAUAUUACCUGGUA [A26G C48A],0.13
12,GUCCUCUUUCACGUGCGCGUGAAAGGGAGAAGUGAACCAGAGAAACACAAGUUGUGGUAUAUUACCUGGUA [A26G C50A],0.262
13,GUCCUCUUUCACGUGCGCGUGAAAGGGAGAAGUGAACCAGAGAAACACACGUUGUGGUAUAUUACAUGGUA [A26G C66A],0.171
14,GUCCUCUUUCACGUGCGCGUGAAAGGGAGAAGUGAACCAGAGAAACACACGUUGUGGUAUAUUACUUGGUA [A26G C66U],0.429
15,GUCCUCUUUCACGUGCGCGUGAAAGGAAGAAGUGAACCAGAGAAACACACGUUGUGGUAUAUUACCUGGUA [A26G G27A],0.275
16,GUCCUCUUUCACGUGCGCGUGAAAGGUAGAAGUGAACCAGAGAAACACACGUUGUGGUAUAUUACCUGGUA [A26G G27U],0.121
17,GUCCUCUUUCACGUGCGCGUGAAAGGGAAAAGUGAACCAGAGAAACACACGUUGUGGUAUAUUACCUGGUA [A26G G29A],0.159
18,GUCCUCUUUCACGUGCGCGUGAAAGGGACAAGUGAACCAGAGAAACACACGUUGUGGUAUAUUACCUGGUA [A26G G29C],0.139
19,GUCCUCUUUCACGUGCGCGUGAAAGGGAGAAAUGAACCAGAGAAACACACGUUGUGGUAUAUUACCUGGUA [A26G G32A],0.103
20,GUCCUCUUUCACGUGCGCGUGAAAGGGAGAAGUCAACCAGAGAAACACACGUUGUGGUAUAUUACCUGGUA [A26G G34C],1.01
21,GUCCUCUUUCACGUGCGCGUGAAAGGGAGAAGUGAACCAUAGAAACACACGUUGUGGUAUAUUACCUGGUA [A26G G40U],0.128
22,GUCCUCUUUCACGUGCGCGUGAAAGGGAGAAGUGAACCAGAGAAACACACGUUUUGGUAUAUUACCUGGUA [A26G G54U],0.349
23,GUCCUCUUUCACGUGCGCGUGAAAGGGAGAAGUGAACCAGAGAAACACACGUUGUGGUAUAUUACCUCGUA [A26G G68C],0.312
24,GUCCUCUUUCACGUGCGCGUGAAAGGGAGAAGUGAACCAGAGAAACACACGUUGUGGUAUAUUACCUGAUA [A26G G69A],0.451
25,GUCCUCUUUCACGUGCGCGUGAAAGGGAGAAGCGAACCAGAGAAACACACGUUGUGGUAUAUUACCUGGUA [A26G U33C],0.0771
26,GUCCUCUUUCACGUGCGCGUGAAAGGGAGAAGGGAACCAGAGAAACACACGUUGUGGUAUAUUACCUGGUA [A26G U33G],0.0904

row,Variant,self-cleavage
1,GUCCUCUUUCACGUGCGCGUGAAAGGGAGAAGUGAACCAGAGAAACACACGAUGUGGUAUAUUACCUGGUA [A26G U52A],0.896
2,GUCCUCUUUCACGUGCGCGUGAAAGGGAGAAGUGAACCAGAGAAACACACGUUGAGGUAUAUUACCUGGUA [A26G U55A],0.283
3,GUCCUCUUUCACGUGCGCGUGAAAGGGAGAAGUGAACCAGAGAAACACACGUUGUGGUAUAUAACCUGGUA [A26G U63A],0.101
4,GUCCUCUUUCACGUGCGCGUGAAAGGGAGAAGUGAACCAGAGAAACACACGUUGUGGUAUAUCACCUGGUA [A26G U63C],0.225
5,GUCCUCUUUCACGUGCGCGUGAAAGGGAGAAGUGAACCAGAGAAACACACGUUGUGGUAUAUUACCAGGUA [A26G U67A],0.148
6,GUCCUCUUUCACGUGCGCGUGAAAGGGAGAAGUGAACCAGAGAAACACACGUUGUGGUAUAUUACCCGGUA [A26G U67C],0.263
7,GUCCUCUUUCACGUGCGCGUGAAAGGGAGAAGUGAACCAGAGAAACACACGUUGUGGUAUAUUACCUGGCA [A26G U70C],0.89
8,GUCCUCUUUCACGUGCGCGUGAAAGUGAGGAGUGAACCAGAGAAACACACGUUGUGGUAUAUUACCUGGUA [A26U A30G],0.142
9,GUCCUCUUUCACGUGCGCGUGAAAGUGAGAGGUGAACCAGAGAAACACACGUUGUGGUAUAUUACCUGGUA [A26U A31G],0.389
10,GUCCUCUUUCACGUGCGCGUGAAAGUGAGAUGUGAACCAGAGAAACACACGUUGUGGUAUAUUACCUGGUA [A26U A31U],0.0397
11,GUCCUCUUUCACGUGCGCGUGAAAGUGAGAAGUGGACCAGAGAAACACACGUUGUGGUAUAUUACCUGGUA [A26U A35G],0.786
12,GUCCUCUUUCACGUGCGCGUGAAAGUGAGAAGUGAACCUGAGAAACACACGUUGUGGUAUAUUACCUGGUA [A26U A39U],0.266
13,GUCCUCUUUCACGUGCGCGUGAAAGUGAGAAGUGAACCAGGGAAACACACGUUGUGGUAUAUUACCUGGUA [A26U A41G],0.841
14,GUCCUCUUUCACGUGCGCGUGAAAGUGAGAAGUGAACCAGUGAAACACACGUUGUGGUAUAUUACCUGGUA [A26U A41U],0.989
15,GUCCUCUUUCACGUGCGCGUGAAAGUGAGAAGUGAACCAGAGGAACACACGUUGUGGUAUAUUACCUGGUA [A26U A43G],0.121
16,GUCCUCUUUCACGUGCGCGUGAAAGUGAGAAGUGAACCAGAGUAACACACGUUGUGGUAUAUUACCUGGUA [A26U A43U],0.139
17,GUCCUCUUUCACGUGCGCGUGAAAGUGAGAAGUGAACCAGAGAAACGCACGUUGUGGUAUAUUACCUGGUA [A26U A47G],0.142
18,GUCCUCUUUCACGUGCGCGUGAAAGUGAGAAGUGAACCAGAGAAACACACGUUGUGGUCUAUUACCUGGUA [A26U A59C],0.137
19,GUCCUCUUUCACGUGCGCGUGAAAGUGAGAAGUGAACCAGAGAAACACACGUUGUGGUAUUUUACCUGGUA [A26U A61U],0.15
20,GUCCUCUUUCACGUGCGCGUGAAAGUGAGAAGUGAACCAGAGAAACACACGUUGUGGUAUAUUGCCUGGUA [A26U A64G],0.399
21,GUCCUCUUUCACGUGCGCGUGAAAGUGAGAAGUGAACCAGAGAAACACACGUUGUGGUAUAUUACCUGGUC [A26U A71C],1.19
22,GUCCUCUUUCACGUGCGCGUGAAAGUGAGAAGUGAAUCAGAGAAACACACGUUGUGGUAUAUUACCUGGUA [A26U C37U],0.466
23,GUCCUCUUUCACGUGCGCGUGAAAGUGAGAAGUGAACAAGAGAAACACACGUUGUGGUAUAUUACCUGGUA [A26U C38A],0.188
24,GUCCUCUUUCACGUGCGCGUGAAAGUGAGAAGUGAACCAGAGAAAAACACGUUGUGGUAUAUUACCUGGUA [A26U C46A],0.146

# Reference: the RNAGym collection of RNA variant scans (doi:10.7554/elife.80360)
